# System: T cells of LTBI and HC donors
# Experiment: antigen reactivity in LTBI vs HC donors (LTBI-specific or crossreactive)
# Format: cell-based, human
# Settings: response frequency and magnitude in LTBI vs HC donors, FIG. 10
# Text: The data herein implies that preexisting immunity and occasional boosting might be provided by exposure to NTMs, in a low MTB-complex exposure population such as the one from the general San Diego area. This might be viewed as desirable, or alternatively contributing an undesired confounding factor in evaluation of vaccination strategies. Regardless, whether or not preexisting, non-TB-complex related reactivity is present in the general population is an important issue has implication for the development of vaccination strategies. To further investigate this issue, epitope reactivity data (Lindestamm-Arlehamn et al, 2012) was mapped back to the specific antigens from which the epitopes were derived. Antigens recognized by 2 or more donors were further categorized as LTBI-specific or crossreactive according to the following criteria; antigens were categorized as LTBI-specific if there was a lack of reactivity in HC individuals, or if the ratio between response frequency and total SFC for LTBI/HC were >4. All other antigens were categorized as crossreactive.
row,Molecule,antigen reactivity category (LTBI-specific or crossreactive)
1,"Rv1886c: MTB antigen currently included in TB vaccines in clinical development (protein, UniProt P9WQP1 41-325, looked up) Diacylglycerol …: FSRPGLPVEYLQVPSPSMGRDIKVQFQSGGNNSPAVYLLDGLRAQDDYNGWDINTPAFEWYYQSGLSIVMPVGGQSSFYSDWYSPACGKAGCQTYKWETFLTSELPQWLSANRAVKPTGSAAIGLSMAGSSAMILAAYHPQQFIYAGSLSALLDPSQGMGPSLIGLAMGDAGGYKAADMWGPSSDPAWERNDPTQQIPKLVANNTRLWVYCGNGTPNELGGANIPAEFLENFVRSSNLKFQDAYNAAGGHNAVFNFPPNGTHSWEYWGAQLNAMKGDLQSSLGAG",widely cross-reactive
2,"Rv0288: MTB antigen currently included in TB vaccines in clinical development (protein, UniProt P9WNK3 1-96, looked up) ESAT-6-like protein EsxH: MSQIMYNYPAMLGHAGDMAGYAGTLQSLGAEIAVEQAALQSAWQGDTGITYQAWQAQWNQAMEDLVRAYHAMSSTHEANTMAMMARDTAEAAKWGG",widely cross-reactive
3,"Rv1196: MTB antigen currently included in TB vaccines in clinical development (protein, UniProt L7N675 1-391, looked up) PPE family protein PPE18: MVDFGALPPEINSARMYAGPGSASLVAAAQMWDSVASDLFSAASAFQSVVWGLTVGSWIGSSAGLMVAAASPYVAWMSVTAGQAELTAAQVRVAAAAYETAYGLTVPPPVIAENRAELMILIATNLLGQNTPAIAVNEAEYGEMWAQDAAAMFGYAAATATATATLLPFEEAPEMTSAGGLLEQAAAVEEASDTAAANQLMNNVPQALQQLAQPTQGTTPSSKLGGLWKTVSPHRSPISNMVSMANNHMSMTNSGVSMTNTLSSMLKGFAPAAAAQAVQTAAQNGVRAMSSLGSSLGSSGLGGGVAANLGRAASVGSLSVPQAWAAANQAVTPAARALPLTSLTSAAERGPGQMLGGLPVGQMGARAGGGLSGVLRVPPRPYVMPHSPAAG",exclusively specific

# Reference: patent US10406218B2 (priority 2014, dated 2019)
